In the supplement of paper PMC9170038:

System: MS2 coat protein
Test: apparent KD of MS2 coat protein; designed switch direction (-1 OFF switch, 1 ON switch): 1; higher = weaker reporter binding
Procedure, shortened: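 For each design, the apparent KD is the median over clusters of curves fitted to normalised cluster fluorescence. Clusters held RNA switches with common flanks, transcribed on Illumina chips by stalled E. coli RNA polymerase. These were titrated with SNAP-549-labelled MS2 coat protein, doubling from 0.7 or 1.5 nM to 3 µM, without input, with 200 uM small-molecule ligand, or with an oligonucleotide input.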

[1] = Eterna round: R95, input ligand: FMN 200 uM
[2] = Eterna round: R95, input ligand: microRNA oligo, concentration not stated
[3] = Eterna round: R95, input ligand: none

Row | Sequence | apparent KD of MS2 coat protein [1] | apparent KD of MS2 coat protein [2] | apparent KD of MS2 coat protein [3] | apparent KD of MS2 coat protein (input ligand: FMN 200 uM) | apparent KD of MS2 coat protein (input ligand: microRNA oligo, concentration not stated) | apparent KD of MS2 coat protein (input ligand: none)
1 | AGUCCAGCAUGAGCUGGACAAAAGCAUGUACAUGAGGAUCACCCAUGUUCAUGUACAAGCUUUUUGCUCGUCAAAAG [Mat - hsa-mir-208a - Mod of JL - 70] (puzzle: Sensor for hsa-mir-208a) | 225 nM | 19.6 nM | 320 nM |  |  | 
2 | AGUCCAGCCUGAGCUGGACAAAAGCAUGUACAUGAGGAUCACCCAUGUCAUGUACAAGCUUUUUGCUCGUCUUGAUA [Zipper 49 - 8] (puzzle: Sensor for hsa-mir-208a) | 416 nM | 16.7 nM | 435 nM |  |  | 
3 | AGUCCAGCCUGAGCUGGACAAAAGCAUGUACAUGAGGAUCACCCAUGUCAUGUACAAGUUUUUUGCUCGUCUUAAAA [Zipper 46 - 11] (puzzle: Sensor for hsa-mir-208a) | 37.7 nM | 13 nM | 40.6 nM |  |  | 
4 | AGUCCAGCCUGAGCUGGACAAAAGCAUGUACAUGAGGAUCACCCAUGUUCAUGUACAAGCUUUUUGCUCGUCUUAGU [salish99_208a_r3_061] (puzzle: Sensor for hsa-mir-208a) | 481 nM | 15.1 nM | 528 nM |  |  | 
5 | AGUCCAGCCUGAGCUGGACAAAAGCAUGUACAUGAGGAUCACCCAUGUUCAUGUACAGGCUUUUUGCUCGUCUUAAA [Zipper 52 - 7] (puzzle: Sensor for hsa-mir-208a) | 331 nM | 17.8 nM | 488 nM |  |  | 
6 | AGUCCAGCCUGAGCUGGACAAAUGCUUGUACAUGAGGAUCACCCAUGUAUGUACAAGCUUUUUGCUCGUCUUAAUAA [JL zipper 68] (Eterna round: R96, puzzle: Sensor for hsa-mir-208a) |  |  |  | 263 nM | 18.2 nM | 223 nM
7 | AGUCCAGCCUGAGCUGGACUGAAGCAUGUACAUGAGGAUCACCCAUGUUCAUGUGCAAGCUUUUUGCUCGUCUUAUG [JL-shm-2.03 JL mod] (puzzle: Sensor for hsa-mir-208a) | 42 nM | 11.5 nM | 41.8 nM |  |  | 
8 | AGUCCAGCGAAAGCUGGACAAAAGCAUGUACAUGAGGAUCACCCAUGUUCAUGUGCAAGCUUUUUGCUCGUCUUAAA [JL mod - D95 - 4] (puzzle: Sensor for hsa-mir-208a) | 49.2 nM | 9.36 nM | 58.9 nM |  |  | 
9 | AGUCCAGCGAAAGCUGGACAAAGACAUGUACAUGAGGAUCACCCAUGUCAUGUACAAGUUUUUUGCUCGUCUUAUAA (puzzle: Sensor for hsa-mir-208a) | 34.4 nM | 12.7 nM | 35.8 nM |  |  | 
10 | AGUCCUGAAAAGAAAAUAAUAAGUGAUGUACAUGAGGAUCACCCAUGUCAUGUACAAGUUCUAUGCUCGUCAUAUAA [Sensorship 24 - Jieux - Sensor for hsa-mir-208a] (puzzle: Sensor for hsa-mir-208a) | 106 nM | 32.2 nM | 98.1 nM |  |  | 
11 | AUAAAACAUGAGGAUCACCCAUGUCAACAAAGUCGAGGAUAUGGGCAAAUAAAAUAAGAACCAGAAGGCGAUUAAU [salish99_ss1_r3_035] (puzzle: Same State 1) | 23.4 nM | 97.3 nM | 99 nM |  |  | 
12 | AUAAGGCAAGCUUUUUUCUCGUAGUGUAAACAUGAGGAUCACCCAUGUGCCCACCCUGGACCUUUGGAUCGCAGAAA [Geatxe] (puzzle: Sensor for hsa-mir-208a) | 30.5 nM | 25.9 nM | 25.9 nM |  |  | 
13 | AUAAGUUCGAUGCUCGUCUCUCCGUACAAACAUGAGGAUCACCCAUGUGAUUAGGCAGUAGCCCAAUCAGUAUGGCC [Ariusveri] (puzzle: Sensor for hsa-mir-208a) | 38.7 nM | 21.8 nM | 43.4 nM |  |  | 
14 | AUAAGUUUGAUGCUCGUCUCUCCGUACAGACAUGAGGAUCACCCAUGUAGUCGGGAAGUAGCCCGGCCUGUAUGGCC [Magequ] (puzzle: Sensor for hsa-mir-208a) | 15.2 nM | 15.7 nM | 14.4 nM |  |  | 
15 | AUAAGUUUGAUGCUCGUCUCUCCGUACGGACAUGAGGAUCACCCAUGUAGUCGGGAAGUAGCCCGGCCAGUAUGGCC [Soveerre] (puzzle: Sensor for hsa-mir-208a) | 32.6 nM | 22.3 nM | 22.9 nM |  |  | 
